US20210253679A1 (NATIONAL RESEARCH COUNCIL OF CANADA, published 2021)

Assays:
[1] = target: T1, human serum albumin (human, UniProt P02768 25-609); test: SPR, single cycle kinetics, pH 5.5
T1 construct: also called HSA

[2] = target: T2, rhesus serum albumin (rhesus, UniProt Q28522 17-600); test: SPR, single cycle kinetics, pH 5.5
T2 construct: also called RhSA

[3] = target: T3, rat serum albumin (rat, UniProt P02770 25-608); test: SPR, single cycle kinetics, pH 7.4
T3 construct: also called RSA

[4] = target: T1, human serum albumin; test: SPR, single cycle kinetics, pH 7.4
[5] = target: T2, rhesus serum albumin; test: SPR, single cycle kinetics, pH 7.4
[6] = target: T3, rat serum albumin; test: SPR, single cycle kinetics, pH 5.5

Binder	Kd [1] [nM]	Kd [2] [nM]	binding result [3]	Kd [4] [nM]	Kd [5] [nM]	Kd [3] [nM]	binding result [5]	binding result [4]	Kd [6] [nM]
Rh46-H4 (VHH) VHH: QVQLVESGGGLVQPGGSLRLSCAASTRTFSSYIMGWFRQAPGKERELVAAISWSGRMTHYADSVKGRFTISRDNSKNTLYLQMNSLRAEDTAIYSCAADRTTAWGAPRSQYDSWGQGTLVTVSS	51.5	25.2	no binding	237	405	–	–	–	–
Rh46-H5 (VHH) VHH: QVQLVESGGGLVQPGGSLRLSCAASTRTFSSYIMGWFRQAPGKERELVAAISWSGRMTHYADSVKGRFTISRDNAKNTVYLQMNSLRAEDTAIYSCAADRTTAWGAPRSQYDSWGQGTLVTVSS	54.9	24.1	no binding	233	343	–	–	–	–
Rh46-H1 (VHH) VHH: EVQLVESGGGLVQPGGSLRLSCAASTRTFSSYIMGWFRQAPGKGLELVSAISWSGRMTHYADSVKGRFTISRDNSKNTLYLQMNSLRAEDTAVYYCAADRTTAWGAPRSQYDSWGQGTLVTVSS	97.7	40.8	no binding	583	707	–	–	–	–
Rh46-H3 (VHH) VHH: QVQLVESGGGLVQPGGSLRLSCAASTRTFSSYIMGWFRQAPGKERELVAAISWSGRMTHYADSVKGRFTISRDNSKNTLYLQMNSLRAEDTAVYYCAADRTTAWGAPRSQYDSWGQGTLVTVSS	70.3	34	no binding	289	415	–	–	–	–
M75-H4 (VHH) VHH: QVQLVESGGGLVQPGGSLRLSCAASGRTFDNYVMAWFRQAPGKEREFVASISGSGSITNYANSVKDRFTISRDSSKNALYLQMNSLRAEDTAVYYCAAGSRRTYYREPKFYPSWGQGTLVTVSS	–	–	–	2.8	6.7	377	–	–	–
M75-H5 (VHH) VHH: QVQLVESGGGLVQPGGSLRLSCAASGRTFDNYVMAWFRQAPGKEREFVASISGSGSITNYANSVKDRFTISRDSAKNAIYLQMNSLRAEDTAVYYCAAGSRRTYYREPKFYPSWGQGTLVTVSS	–	–	–	2.1	4.6	62.4	–	–	–
M75-H2 (VHH) VHH: EVQLVESGGGLVQPGGSLRLSCAASGRTFDNYVMAWFRQAPGKEREFVSSISGSGSITNYANSVKDRFTISRDNSKNTLYLQMNSLRAEDTAVYYCAAGSRRTYYREPKFYPSWGQGTLVTVSS	–	–	–	7.8	63.6	2490	–	–	–
M75-H1 (VHH) VHH: EVQLVESGGGLVQPGGSLRLSCAASGRTFDNYVMAWFRQAPGKGLEFVSSISGSGSITNYANSVKDRFTISRDNSKNTLYLQMNSLRAEDTAVYYCAAGSRRTYYREPKFYPSWGQGTLVTVSS	–	–	–	3.2	6.1	659	–	–	–
M75-H3 (VHH) VHH: QVQLVESGGGLVQPGGSLRLSCAASGRTFDNYVMAWFRQAPGKEREFVASISGSGSITNYANSVKDRFTISRDNSKNTLYLQMNSLRAEDTAVYYCAAGSRRTYYREPKFYPSWGQGTLVTVSS	–	–	–	4.8	17.7	1260	–	–	–
Rh34-H2 (VHH) VHH: EVQLVESGGGLVQPGGSLRLSCAASGRTISLYAVGWFRQAPGKEREFVSAISWTDSSTYYADSVKGRFTISRDNSKNTLYLQMNSLRAEDTAVYYCAADVSIRGLQKYEYDYWGQGTLVTVS	2320	3080	no binding	1330	1470	–	–	–	–
Rh34-H5 (VHH) VHH: QVQLVESGGGLVQPGGSLRLSCAASGRTISLYAVGWFRRAPGKEREFVAAISWTDSSTYYADSVKGRFTISRDNAKNTVYLQMNSLRAEDTAVYYCAADVSIRGLQKYEYDYWGQGTLVTVS	524	1420	no binding	410	589	–	–	–	–
Rh34-H4 (VHH) VHH: QVQLVESGGGLVQPGGSLRLSCAASGRTISLYAVGWFRRAPGKEREFVAAISWTDSSTYYADSVKGRFTISRDNSKNTLYLQMNSLRAEDTAVYYCAADVSIRGLQKYEYDYWGQGTLVTVSS	974	2250	no binding	647	739	–	–	–	–
Rh34-H3 (VHH) VHH: QVQLVESGGGLVQPGGSLRLSCAASGRTISLYAVGWFRQAPGKEREFVAAISWTDSSTYYADSVKGRFTISRDNSKNTLYLQMNSLRAEDTAVYYCAADVSIRGLQKYEYDYWGQGTLVTVSS	2310	1810	no binding	1370	1260	–	–	–	–
Rh34-H1 (VHH) VHH: EVQLVESGGGLVQPGGSLRLSCAASGRTISLYAVGWFRQAPGKGLEFVSAISWTDSSTYYADSVKGRFTISRDNSKNTLYLQMNSLRAEDTAVYYCAADVSIRGLQKYEYDYWGQGTLVTVSS	1560	1920	no binding	824	1350	–	–	–	–
Rh46-H2 (VHH) VHH: EVQLVESGGGLVQPGGSLRLSCAASTRTFSSYIMGWFRQAPGKERELVSAISWSGRMTHYADSVKGRFTISRDNSKNTLYLQMNSLRAEDTAVYYCAADRTTAWGAPRSQYDSWGQGTLVTVS	87.3	44.1	no binding	426	456	–	–	–	–
H18-H4 (VHH) VHH: QVQLVESGGGLVQPGGSLRLSCAASGSIESINRMAWYRQAPGQQREFVARISKGGSTNYPDSVKGRFTISRDNSKNTLYLQMNSLRAEDTAVYYCAAGPVWEQFWGQGTLVTVSS	57.1	72.7	no binding	58.6	34.4	–	–	–	–
H18-H3 (VHH) VHH: QVQLVESGGGLVQPGGSLRLSCAASGSIESINRMAWYRQAPGKQREFVARISKGGSTNYPDSVKGRFTISRDNSKNTLYLQMNSLRAEDTAVYYCAAGPVWEQFWGQGTLVTVSS	22.3	57.6	no binding	19.1	38.2	–	–	–	–
H18-H1 (VHH) VHH: EVQLVESGGGLVQPGGSLRLSCAASGSIESINRMAWYRQAPGKGLEFVSRISKGGSTNYPDSVKGRFTISRDNSKNTLYLQMNSLRAEDTAVYYCAAGPVWEQFWGQGTLVTVSS	56.3	92.2	no binding	52.8	91.5	–	–	–	–
H18-H5 (VHH) VHH: QVQLVESGGGLVQPGGSLRLSCAASGSIESINRMAWYRQAPGQQREFVARISKGGSTNYPDSVKGRFTISRDNAKNTVYLQMNSLRAEDTAVYYCAAGPVWEQFWGQGTLVTVSS	46.6	70.7	no binding	59.4	91.7	–	–	–	–
R11-H1 (VHH) VHH: EVQLVESGGGLVQPGGSLRLSCAASGFLLRSNTMGWYRQAPGKGLELVSFIRPSGLTNYNDAVQGRFTISRDNSKNTLYLQMNSLRAEDTAVYYCATRPPFQRDSWGQGTLVTVSS	–	–	no binding	–	–	–	no binding	–	–
R11-H2 (VHH) VHH: EVQLVESGGGLVQPGGSLRLSCAASGFLLRSNTMGWYRQAPGKGLELVSFIRPSGLTNYNDAVQGRFTISRDNSKNTLYLQMNSLRAEDTAVYYCHTRPPFQRDSWGQGTLVTVSS	–	–	no binding	–	–	–	no binding	no binding	–
R11-H6 (VHH) VHH: QVQLVESGGGLVQPGGSLRLSCAGPGFLLRSNTMGWYRQAPGKERELVAFIRPSGLTNYNDAVQGRFTISRDNAKNTVYLQMNSLRAEDTAVYYCHTRPPFQRDSWGQGTLVTVSS	67.5	511	–	252	561	151	–	–	123
R11-H5 (VHH) VHH: QVQLVESGGGLVQPGGSLRLSCAGPGFLLRSNTMGWYRQAPGKERELVAFIRPSGLTNYNDAVQGRFTISRDNSKNTLYLQMNSLRAEDTAVYYCHTRPPFQRDSWGQGTLVTVSS	98.2	525	–	307	643	196	–	–	160
R28-H2 (VHH) VHH: EVQLVESGGGLVQPGGSLRLSCAASGRTFIAYAMGWFRQAPGKEREFVSAITNFAGGTTYYADSVKGRFTISRDNSKNTLYLQMNSLRAEDTAVYYCAADRSAQTMRQVRPVLPYWGQGTLVTVSS	6.6	668	–	147	2630	4.1	–	–	1
